Here are results for six molecules from patent US20180194862A1 (AbbVie / Abbott, published 2018).

In experiment [1] the target is T1, human mesothelin (human, UniProt Q13421 296-580, limits assumed).
T1 construct: also called Human MSLN
In words: SPR. On the technique in general: Surface plasmon resonance follows binding to a sensor surface in real time, without labels.

In experiment [2] the target is T2, cynomolgus mesothelin (cynomolgus).
T2 construct: also called cynoMSLN; Cyno MSLN
As to the kind of experiment: SPR.

In experiment [3] the target is T3, mesothelin on cells (endogenous on SN12C, OVCAR3, SW1990); HEK293 cells expressing cell-surface human … (human, UniProt Q13421 296-598).
T3 construct: whole, on cells; also called cell-surface MSLN
As to the kind of experiment: FACS, SN12C (CA125-). On the procedure: (§1) The binding of anti-mesothelin affinity matured variants was measured by FACS on the ovarian cancer cell line OVCAR3, the pancreatic cancer cell line SW1990, and the renal cancer cell line SN12C. Both OVCAR3 and SW1990 express CA125, but CA125 expression on SN12C cells was not detected.
On the technique in general: Flow cytometry measures light scatter and fluorescence of single cells or particles in a stream.

For experiment [4], the target named is T3, mesothelin on cells (endogenous on …). As to the kind of experiment: FACS, OVCAR3 (CA125+). As to the method: as §1
In experiment [5] the target is human CD40 on cells (HEK293 stable transfectants, HEK-Blue CD40 cells, human B cells, monocytic cells, … (human, UniProt P25942 21-277)). As to the kind of experiment: cell-based or functional assay.
The target of experiment [6] is T4, soluble form of the extracellular domain of human CD40 (Creative BioMart) (human, UniProt P25942 21-193).
T4 construct: Bought
As to the kind of experiment: SPR, Ab captured. As to the method:
CD40 binding kinetics was analyzed by surface plasmon resonance assay with a Biacore T200 instrument (Table 1-5). Briefly, a goat anti-mouse Fc antibody (Pierce) or goat anti-human Fc (Pierce) was immobilized on a CM5 sensor chip, followed by capture of the anti-CD40 antibodies on the test surface. Subsequently, the soluble form of the extracellular domain of human CD40 (Creative BioMart) or cynomolgus (cyno) CD40 (Creative BioMart) was injected, and the binding and dissociation were measured.

T4 sequence (P25942 21-193 limits assumed): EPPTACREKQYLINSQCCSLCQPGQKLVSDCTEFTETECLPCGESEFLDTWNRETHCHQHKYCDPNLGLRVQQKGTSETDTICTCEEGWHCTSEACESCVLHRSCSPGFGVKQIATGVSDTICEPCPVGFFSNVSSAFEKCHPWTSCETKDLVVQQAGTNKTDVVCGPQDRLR
T1 sequence (Q13421 other isoform, or with tags, fused parts or gaps limits assumed): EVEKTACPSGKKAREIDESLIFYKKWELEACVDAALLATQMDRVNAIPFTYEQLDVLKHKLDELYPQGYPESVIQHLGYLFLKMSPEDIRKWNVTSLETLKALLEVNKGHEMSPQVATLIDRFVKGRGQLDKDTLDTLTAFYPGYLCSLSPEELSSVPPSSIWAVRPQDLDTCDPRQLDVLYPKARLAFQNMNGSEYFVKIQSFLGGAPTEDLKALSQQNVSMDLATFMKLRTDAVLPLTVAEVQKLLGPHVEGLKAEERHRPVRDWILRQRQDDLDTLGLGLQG
T3 sequence (Q13421 other isoform, or with tags, fused parts or gaps limits assumed): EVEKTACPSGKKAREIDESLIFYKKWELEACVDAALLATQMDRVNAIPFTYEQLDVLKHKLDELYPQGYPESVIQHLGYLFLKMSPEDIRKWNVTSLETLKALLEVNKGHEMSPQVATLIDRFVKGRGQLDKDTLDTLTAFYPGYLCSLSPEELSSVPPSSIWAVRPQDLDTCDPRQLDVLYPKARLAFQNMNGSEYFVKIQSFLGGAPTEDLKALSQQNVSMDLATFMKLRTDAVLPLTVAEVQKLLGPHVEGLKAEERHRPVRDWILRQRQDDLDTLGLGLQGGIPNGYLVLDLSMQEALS
human CD40 on cells (HEK293 stable transfectants, HEK-Blue CD40 cells, human B cells, monocytic cells, …, sequence (P25942 21-277 limits assumed): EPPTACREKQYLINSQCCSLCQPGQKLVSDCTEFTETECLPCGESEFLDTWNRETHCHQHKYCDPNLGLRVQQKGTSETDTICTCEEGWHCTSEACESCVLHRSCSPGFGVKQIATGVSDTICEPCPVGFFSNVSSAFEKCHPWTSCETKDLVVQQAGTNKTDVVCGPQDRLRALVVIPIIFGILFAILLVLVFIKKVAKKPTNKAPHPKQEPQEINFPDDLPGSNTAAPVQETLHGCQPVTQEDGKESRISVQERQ

B1: HuAb17 (antibody, V domains shown)
VH: EVQLVQSGAEVKEPGASVKVSCKASGDTFNRYYVHWARQAPGQGLEWMGIINPSGVSTTYAQKFQGRVTMTRDTPTNTVYMELGSLRPEDTAVYFCAESRGSGYNYFAMDVWGQGTLVTVSS
VL: SYELTQPPSVSVSPGQTADITCSGDKLGDKYASWYQQKPGQSPVLVIYQDNRRPSGIPERFSGSNSGNTATLTISGTQAMDEADYYCQAWDSDTYVFGPGTKVTVL
notes: fully human antibody
For the molecule B1, in experiment [1], the affinity, expressed as Kd, was 2.6 nM; the koff (as a rule, the rate constant with which the complex falls apart) worked out at 3.2e-05 s⁻¹; the on-rate constant (kon) (as a rule, the second-order rate constant of association) was 12000 M⁻¹ s⁻¹. For the same molecule, in experiment [2], the Kd – broadly, a measure of binding affinity in units of concentration – turned out to be 8.1 nM; the koff amounted to 0.00013 s⁻¹; the kon was found to be 15000 M⁻¹ s⁻¹. Also, in experiment [3], it took 2.74 µg/mL to reach a half-maximal effect (EC50) and the “Maximum binding (MFI)” value was 11000 MFI. Further, in experiment [4], the response was half-maximal at 2.9 µg/mL (EC50) and the “Maximum binding (MFI)” value came to 1640 MFI.

B2: HuAM12 (antibody, V domains shown)
VH: EVQLVQSGAEVKKPGASVKVSCKASGDTFHRYYVHWVRQAPGQGLEWMGIINPSGVSTTYAQKFQGRVTMTRDTSTSTVYMELSSLRSEDTAVYYCAEVRGSGFNYFGMDVWGQGTLVTVSS
VL: SYELTQPPSVSVSPGQTASITCSGDKLGDKYASWYQQKPGQSPVLVIYQDNRRPSGIPERFSGSNSGNTATLTISGTQAMDEADYYCQAWDSDTYVFGTGTKVTVL
notes: fully human antibody
B2: in experiment [3], the concentration for a half-maximal effect (EC50) (usually the concentration at which the effect is half-maximal) came to 0.09 µg/mL and the “Maximum binding (MFI)” value came out at 9630 MFI. For the same molecule, in experiment [4], the EC50 came to 0.8 µg/mL and the “Maximum binding (MFI)” value was 3270 MFI.

B3: HuAM11 (antibody, V domains shown)
VH: EVQLVQSGAEVKKPGASVKVSCKASGDTFKRYYMHWVRQAPGQGLEWMGIINPSGVSTTYAQKFQGRVTMTRDTSTSTVYMELSSLRSEDTAVYYCAEVRGSGFNYFGMDVWGQGTLVTVSS
VL: SYELTQPPSVSVSPGQTASITCSGDKLGDKYASWYQQKPGQSPVLVIYQDNRRPSGIPERFSGSNSGNTATLTISGTQAMDEADYYCQVWDSDTYVFGTGTKVTVL
notes: fully human antibody
Take B3: in experiment [3], the midpoint of the response, the EC50, lay at 0.04 µg/mL and the “Maximum binding (MFI)” value worked out at 7530 MFI. In addition, in experiment [4], the midpoint of the response, the EC50, lay at 0.7 µg/mL and the “Maximum binding (MFI)” value was 3430 MFI.

B4: HuAM14 (antibody, V domains shown)
VH: EVQLVQSGAEVKKPGASVKVSCKASGDTFKRYYMHWVRQAPGQGLEWMGIINPSGVSTTYAQKFQGRVTMTRDTSTSTVYMELSSLRSEDTAVYYCAEVRGSGFNYFGMDVWGQGTLVTVSS
VL: SYELTQPPSVSVSPGQTASITCSGDKLGDKYASWYQQKPGQSPVLVIYQDNRRPSGIPERFSGSNSGNTATLTISGTQAMDEADYYCQAWDSDTYVFGTGTKVTVL
notes: fully human antibody
With B4, the EC50 in experiment [3] was determined as 0.09 µg/mL; in experiment [4] it was 0.7 µg/mL. For the same molecule, the “Maximum binding (MFI)” value in experiment [3] was determined as 9800 MFI; in experiment [4], 3370 MFI.

B5: HuAM13 (antibody, V domains shown)
VH: EVQLVQSGAEVKKPGASVKVSCKASGDTFNRYYVQWVRQAPGQGLEWMGIINPSGVSTTYAQKFQGRVTMTRDTSTSTVYMELSSLRSEDTAVYYCAETRGSGFNYFGMDVWGQGTLVTVSS
VL: SYELTQPPSVSVSPGQTASITCSGDKLGDKYASWYQQKPGQSPVLVIYQDNRRPSGIPERFSGSNSGNTATLTISGTQAMDEADYYCQVWDSDTYVFGTGTKVTVL
notes: fully human antibody
With B5, in experiment [3], a half-maximal effect (EC50) was put at 0.09 µg/mL and the “Maximum binding (MFI)” value stood at 9870 MFI. For the same molecule, in experiment [4], the EC50 turned out to be 0.7 µg/mL and the “Maximum binding (MFI)” value stood at 3670 MFI.

B6: AD163.10.7 (antibody, V domains shown)
VH: LVQPGGSLSLSCAASGFTFSDYYMSWVRQPPGKALEWLGFIRNKANGYTTEFSASVKGRFTISRDNSQSILYLQMNALRAEDSATYYCARYGGLRQGWYFDVWGTGTTVTVSS
VL: DIQMTQTTSSLSASLGDRVTISCRASQDIRNYLNWYQQKPDGTVKLLIYYTSRLHSGVPSRFSGSGSGTDYSLTISNLEQEDIATYFCQQGKTLPWTFGGGSKLEMK
notes: mouse hybridoma antibody; also called muAb4
Regarding B6, in experiment [5], the “Monocyte activation (THP1-Xblue, OD655)” value is 0.16 OD655 and the “moDC activation (IL-12p70)” value was 1320 pg/mL. In experiment [6], this molecule displayed a Kd of 76 nM, a koff of 0.17 s⁻¹ and a kon of 2.3e+06 M⁻¹ s⁻¹.
